Data set [1] concerns the target T1, Ku-Mtb (Mycobacterium tuberculosis, UniProt P9WKD9 1-273).
T1 sequence: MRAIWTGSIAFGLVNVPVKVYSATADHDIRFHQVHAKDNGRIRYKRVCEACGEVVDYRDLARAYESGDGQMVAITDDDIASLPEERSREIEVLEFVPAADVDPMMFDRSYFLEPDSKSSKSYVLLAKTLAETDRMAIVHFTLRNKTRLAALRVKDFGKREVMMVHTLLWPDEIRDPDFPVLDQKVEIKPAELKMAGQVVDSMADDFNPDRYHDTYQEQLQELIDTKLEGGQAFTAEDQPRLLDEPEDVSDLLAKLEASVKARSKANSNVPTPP
In words: EMSA; 5 mM MgCl2. Particulars: protein: recombinant; tags: His (Ni-NTA purified, pET45b); chain copies: 2; blunt.

The target in data set [2] is T1, Ku-Mtb. In words: EMSA. Particulars: protein: recombinant; tags: His (Ni-NTA purified, pET45b); chain copies: 2; label: 5' FAM on strand 1; 3' overhang 20 nt on strand 1.
Data set [3] addresses T1, Ku-Mtb. In words: FIDA (hydrodynamic radius). Particulars: protein: recombinant; tags: His (Ni-NTA purified, pET45b); chain copies: 2; label: 5' FAM on strand 1; 3' overhang 20 nt on strand 1.

B1: Blunt-DNA 50 bp (dsDNA)
DNA 1: CCTCTAGACCTGTACTACTCGAGAGATCGATCGACAGACGATGACTTAGC
DNA 2: GCTAAGTCATCGTCTGTCGATCGATCTCTCGAGTAGTACAGGTCTAGAGG
B1: the binding result with Ku-Mtb [1] is reported as “binds”.

B2: FAM-DNA, 32 bp with 3' 20dT overhang (mixed)
DNA 1: GGAATGTAACCATCGTTGGTCGGCAGCAGGGCTTTTTTTTTTTTTTTTTTTT
DNA 2: GCCCTGCTGCCGACCAACGATGGTTACATTCC
In the case of B2, the binding result with Ku-Mtb [2] and with Ku-Mtb [3] was “binds” in each case.

For the origin of these results see PMC12658125, “Oligomerisation of Ku from Mycobacterium tuberculosis promotes DNA synapsis” (Nature Communications, 2025).
